Measured values published in patent US20090311283A1.
Like-named read-outs stand apart in the source and are kept apart here.

Assays:
HLA-B*3501 (Human) = assay: competition with 125I-labelled probe peptide for purified HLA, gel filtration
HLA-B*5101 (Human) = assay: as above
HLA-B*5401 (Human) = assay: as above
HLA-B*0702 (Human) = assay: as above
HLA-A*0301 (human) [1] = assay: competition with 125I probe peptide on purified HLA-A*0301; relative to standard peptide 941.12
HLA-A*3101 (human) = assay: competition with 125I probe peptide on purified HLA-A*3101; relative to standard peptide 941.12
HLA-A*6801 (human) = assay: competition with 125I probe peptide on purified HLA-A*6801; relative to standard peptide 941.12
HLA-A*0301 (human) [2] = assay: inhibition of binding of a 125I-labelled probe peptide to purified HLA-A*0301, gel filtration; relative to the standard peptide
HLA-A*0301 (human) [3] = assay: competition with 125I-labelled probe peptide for purified HLA-A*0301, gel filtration; relative binding against the standard peptide; settings: scale: ratio
HLA-A*0301 (human) [4] = assay: competitive inhibition of 125I-labelled probe peptide binding to purified HLA, gel filtration; settings: scale: ratio
HLA-DRB1*0101 (human) = target: T1, HLA-DRB1*0101 (human); assay: inhibition of 125I-labelled probe peptide binding to purified HLA-DR; gel filtration; settings: remark: other sources report otherwise
T1 chain 1: not shown
T1 chain 2: not shown

HLA-DRB1*0401 (human) = target: T2, HLA-DRB1*0401 (human); assay: as above; settings: remark: other sources report otherwise
T2 chain 1: not shown
T2 chain 2: not shown

HLA-DRB1*0701 (human) = target: T3, HLA-DRB1*0701 (human); assay: as above; settings: remark: other sources report otherwise
T3 chain 1: not shown
T3 chain 2: not shown

[5] = remark: other sources report otherwise

## LPLDKGIKPYY (modifications not checked) [HBV POL 123 peptide …]
HLA-B*3501 (Human)
  binding affinity ratio (IC50 of standard peptide / IC50 of test peptide): 0.0009
HLA-B*5101 (Human)
  binding affinity ratio (IC50 of standard peptide / IC50 of test peptide): 0.0001
HLA-B*5401 (Human)
  binding affinity ratio (IC50 of standard peptide / IC50 of test peptide): 0.0001

## PPAYRPPNAPI (modifications not checked) [HBV NUC 129 peptide …]
HLA-B*0702 (Human)
  binding affinity ratio (IC50 of standard peptide / IC50 of test peptide): 0.0003
HLA-B*3501 (Human)
  binding affinity ratio (IC50 of standard peptide / IC50 of test peptide): 0.0001
HLA-B*5101 (Human)
  binding affinity ratio (IC50 of standard peptide / IC50 of test peptide): 0.0001
HLA-B*5401 (Human)
  binding affinity ratio (IC50 of standard peptide / IC50 of test peptide): 0.0001

## SPEHCSPHHTA (modifications not checked) [HBV NUC 44 peptide …]
HLA-B*3501 (Human)
  binding affinity ratio (IC50 of standard peptide / IC50 of test peptide): 0.0001
HLA-B*5101 (Human)
  binding affinity ratio (IC50 of standard peptide / IC50 of test peptide): 0.0001
HLA-B*5401 (Human)
  binding affinity ratio (IC50 of standard peptide / IC50 of test peptide): 0.0011

## RTPSPRRR (modifications not checked) [HBV NUC 188 peptide RTPSPRRR]
HLA-A*1101 (human)
  binding affinity ratio (IC50 standard peptide / IC50 test peptide): -0.0002
HLA-A*3301 (human)
  binding affinity ratio (IC50 standard peptide / IC50 test peptide): 0.0014
HLA-A*0301 (human) [1]
  binding affinity ratio (IC50 standard peptide / IC50 test peptide): -0.0002
HLA-A*3101 (human)
  binding affinity ratio (IC50 standard peptide / IC50 test peptide): 0.0033
HLA-A*6801 (human)
  binding affinity ratio (IC50 standard peptide / IC50 test peptide): 0.0002
HLA-A*0301 (human) [2]
  binding affinity ratio (IC50 of standard peptide / IC50 of test peptide): -0.0002

## SAGPCALRF (modifications not checked) [HBV X 65 peptide …]
HLA-A*0301 (human) [2]
  binding affinity ratio (IC50 of standard peptide / IC50 of test peptide): -0.0003

## SAICSVVR (modifications not checked) [HBV POL 520 peptide SAICSVVR]
HLA-A*1101 (human); [5]
  binding affinity ratio (IC50 standard peptide / IC50 test peptide): 0.0071
HLA-A*3301 (human); [5]
  binding affinity ratio (IC50 standard peptide / IC50 test peptide): 0.0081
HLA-A*0301 (human) [1]; [5]
  binding affinity ratio (IC50 standard peptide / IC50 test peptide): -0.0002
HLA-A*3101 (human); [5]
  binding affinity ratio (IC50 standard peptide / IC50 test peptide): 0.028
HLA-A*6801 (human); [5]
  binding affinity ratio (IC50 standard peptide / IC50 test peptide): 0.069
HLA-A*0301 (human) [2]; [5]
  binding affinity ratio (IC50 of standard peptide / IC50 of test peptide): -0.0002

## SALNPADDPSR (modifications not checked) [HBV POL 771 peptide …]
HLA-A*1101 (human)
  binding affinity ratio (IC50 standard peptide / IC50 test peptide): -0.0003
HLA-A*3301 (human)
  binding affinity ratio (IC50 standard peptide / IC50 test peptide): -0.0023
HLA-A*0301 (human) [1]
  binding affinity ratio (IC50 standard peptide / IC50 test peptide): -0.0004
HLA-A*3101 (human)
  binding affinity ratio (IC50 standard peptide / IC50 test peptide): -0.0012
HLA-A*6801 (human)
  binding affinity ratio (IC50 standard peptide / IC50 test peptide): 0.0003
HLA-A*0301 (human) [2]
  binding affinity ratio (IC50 of standard peptide / IC50 of test peptide): -0.0004

## SSAGPCALRF (modifications not checked) [HBV X 64 peptide …]
HLA-A*0301 (human) [2]
  binding affinity ratio (IC50 of standard peptide / IC50 of test peptide): -0.0003

## SVVLSRKY (modifications not checked) [HBV POL 739 peptide SVVLSRKY]
HLA-A*0301 (human) [3]
  binding affinity ratio (relative to standard peptide): -0.0002

## TAELLAACFAR (modifications not checked) [HBV POL 716 peptide …]
HLA-A*1101 (human); [5]
  binding affinity ratio (IC50 standard peptide / IC50 test peptide): 0.0023
HLA-A*3301 (human); [5]
  binding affinity ratio (IC50 standard peptide / IC50 test peptide): 0.16
HLA-A*0301 (human) [1]; [5]
  binding affinity ratio (IC50 standard peptide / IC50 test peptide): 0.0006
HLA-A*3101 (human); [5]
  binding affinity ratio (IC50 standard peptide / IC50 test peptide): 0.0066
HLA-A*6801 (human); [5]
  binding affinity ratio (IC50 standard peptide / IC50 test peptide): 0.059
HLA-A*0301 (human) [3]; [5]
  binding affinity ratio (relative to standard peptide): 0.0006

## TDNSVVLSRK (modifications not checked) [HBV POL 736 peptide …]
HLA-A*0301 (human) [3]
  binding affinity ratio (relative to standard peptide): 0.0006

## TTVVRRRGR (modifications not checked) [HBV NUC 175 peptide …]
HLA-A*0301 (human) [3]; [5]
  binding affinity ratio (relative to standard peptide): 0.0008

## YLVSFGVWIR (modifications not checked) [HBV NUC 118 peptide …]
HLA-A*0301 (human) [4]
  binding affinity ratio (relative binding to standard peptide): 0.0005

## YSLNFMGY (modifications not checked) [HBV POL 580 peptide YSLNFMGY]
HLA-A*0301 (human) [4]
  binding affinity ratio (relative binding to standard peptide): -0.0002

## HLSLRGLPVCAFSSA (modifications not checked) [… (HBV X 52, 15-mer)]
HLA-DRB1*0101 (human)
  binding affinity ratio (IC50 of standard peptide / IC50 of test peptide): 1.3
HLA-DRB1*0401 (human)
  binding affinity ratio (IC50 of standard peptide / IC50 of test peptide): 0.0028
HLA-DRB1*0701 (human)
  binding affinity ratio (IC50 of standard peptide / IC50 of test peptide): 0.013
